Laboratory results published in patent US20230090247A1, “MOLECULES TARGETING RAS PROTEIN” (AELIN THERAPEUTICS, priority 2020, published 2023).
Ends that are not written are not given here.

Tests used:
G12C mutant KRAS = target: T1, G12C mutant KRAS (Homo sapiens, UniProt P01116, G12C); assay: In vitro translation assay with streptavidin pull-down, KRAS G12C; format: binding; conditions: 10 μM biotinylated pept-in, Western blot
T1 construct: made in house; host or cells: cell-free: PURExpress In Vitro Protein Synthesis Kit (New England Biolabs), linear T7 DNA template
Text: (§1) FIG. 5 illustrates in vitro translation assay showing target selectivity of RAS-targeting molecules (‘pept-ins’) according to certain embodiments of the present invention. In vitro translation assay producing either wild-type or different mutant KRAS in the presence of biotinylated RAS-targeting pept-ins. Streptavidin pull-down was used to capture the biotinylated pept-ins from the translation reaction and pulled-down fraction was probed for KRAS using Western blot. The biotinylated version of pept-in 04-004-N001, i.e. 04-004-N011, which harbours an APR window sequence derived from a wild-type APR, would be predicted to target all RAS proteins independently from their mutation status. […]
(§2) In vitro translation assays were performed using the PURExpress® In Vitro Protein Synthesis Kit (New England Biolabs) according to the manufacturer's instructions. […] Proteins were resolved using Any kD 15-well Mini-PROTEAN gels (Bio-Rad) during SDS-PAGE and probed for KRAS after Western blotting using a mouse monoclonal KRAS-specific antibody (SC-30, Santa Cruz Biotechnology), which was detected with an HRP-coupled anti-mouse secondary antibody using chemiluminescence on a Bio-Rad Chemidoc MP imaging instrument. […]

KRAS G12D mutant = target: T2, KRAS G12D mutant (Homo sapiens, UniProt P01116, G12D); assay: In vitro translation assay with streptavidin pull-down, KRAS G12D; format: binding; conditions: 10 μM biotinylated pept-in, Western blot
T2 construct: made in house; host or cells: cell-free: PURExpress In Vitro Protein Synthesis Kit (New England Biolabs), linear T7 DNA template
Text: as §1, §2

G12V mutant KRAS = target: T3, G12V mutant KRAS (Homo sapiens, UniProt P01116, G12V); assay: In vitro translation assay with streptavidin pull-down, KRAS G12V; format: binding; conditions: 10 μM biotinylated pept-in, Western blot
T3 construct: made in house; host or cells: cell-free: PURExpress In Vitro Protein Synthesis Kit (New England Biolabs), linear T7 DNA template
Text: FIG. 5 illustrates in vitro translation assay showing target selectivity of RAS-targeting molecules (‘pept-ins’) according to certain embodiments of the present invention. In vitro translation assay producing either wild-type or different mutant KRAS in the presence of biotinylated RAS-targeting pept-ins. Streptavidin pull-down was used to capture the biotinylated pept-ins from the translation reaction and pulled-down fraction was probed for KRAS using Western blot. The biotinylated version of pept-in 04-004-N001, i.e. 04-004-N011, which harbours an APR window sequence derived from a wild-type APR, would be predicted to target all RAS proteins independently from their mutation status. […] Using the biotinylated versions of the biologically active pept-ins harbouring an APR window containing the G12V mutant site (04-006-N007, 04-015-N026 and 04-033-N003), however, pull-down was only observed for the G12V mutant KRAS and, in the case of 04-015-N026, for G12C mutant KRAS.
In vitro translation assays were performed using the PURExpress® In Vitro Protein Synthesis Kit (New England Biolabs) according to the manufacturer's instructions. Briefly, linear DNA fragments containing T7 promotor and terminator sequences flanking the KRAS coding sequence were generated using PCR and purified using the MinElute PCR Purification Kit (Qiagen). 250 ng of linear DNA was subsequently used for the in vitro translation reaction, which was performed for 2 hours at 37° C. with shaking (1000 rpm). Indicated biotinylated pept-ins were mixed in the translation reactions from a 5 mM stock solution in 6M Urea to a final concentration of 10 μM. Upon completion of the translation reaction, biotinylated pept-ins were captured from the reaction mix using Streptavidin coated beads (Pierce) during 90 min at room temperature. Beads were next washed with TBS containing 0.1% Tween 20 and bound proteins were finally boiled off in 1×SDS loading dye (Bio-Rad) in TBS buffer. Proteins were resolved using Any kD 15-well Mini-PROTEAN gels (Bio-Rad) during SDS-PAGE and probed for KRAS after Western blotting using a mouse monoclonal KRAS-specific antibody (SC-30, Santa Cruz Biotechnology), which was detected with an HRP-coupled anti-mouse secondary antibody using chemiluminescence on a Bio-Rad Chemidoc MP imaging instrument.
To mimic this in vitro, we devised an in vitro translation setup producing either wild-type or mutant (G12V, G12C, G12D or G13D) KRAS in the presence of biotinylated RAS-targeting pept-ins. This allowed us to perform a streptavidin pull-down to capture the biotinylated pept-ins from the translation reaction and perform SDS-PAGE and Western blotting to probe the pulled-down fraction for the presence of KRAS. […]

KRAS wild-type = target: T4, KRAS wild-type (Homo sapiens, UniProt P01116); assay: In vitro translation assay with streptavidin pull-down, KRAS wild-type; format: binding; conditions: 10 μM biotinylated pept-in, Western blot
T4 construct: made in house; host or cells: cell-free: PURExpress In Vitro Protein Synthesis Kit (New England Biolabs), linear T7 DNA template
Text: as §1, §2

mutant G12V KRAS = target: T5, mutant G12V KRAS (Homo sapiens, UniProt P01116, G12V); assay: Cellular co-immunoprecipitation in KRAS G12V expressing RASless MEFs; format: cell-based; conditions: 25 μM biotinylated pept-in, 16 hours
T5 construct: host or cells: RASless mouse embryonic fibroblasts expressing a KRAS G12V transgene
Method: (§3) FIG. 10 illustrates cellular co-immunoprecipitation assays showing target engagement by RAS-targeting molecules (‘pept-ins’) according to certain embodiments of the present invention. Cellular target engagement of biotinylated pept-ins was assessed using co-immunoprecipitation assay. KRAS wild-type or mutant G12V expressing RASless MEFs. […] The biotinylated versions of the G12V-selective pept-ins, however, show preferential binding to the G12V mutant KRAS protein.
(§4) Cellular co-immunoprecipitation assays were performed using either KRAS wild-type or mutant G12V expressing RASless MEFs (see elsewhere) or human NCI-H441 lung adenocarcinoma tumor cells and N-terminally biotinylated pept-ins. Cells were seeded at a density of 300,000 cells in a clear 6-well plate (Cellstar, Greiner). […] Next, cells were lysed with NP-40 lysis buffer (150 mM NaCl, 50 mM Tris HCl pH8, 1% IGEPAL (NP40), 1× Halt phosphatase/protease inhibitors (Thermo), 1 U/μl Universal Nuclease (Pierce)) and biotinylated pept-ins were captured with streptavidin-coated magnetic beads (Pierce) during 1 hours at room temperature. Beads were washed with NP40 lysis buffer at least 3 times, after which bound proteins were boiled off in 1×SDS loading dye (Bio-Rad) in NP40 lysis buffer. […]

wild-type KRAS = target: T6, wild-type KRAS (Homo sapiens, UniProt P01116); assay: Cellular co-immunoprecipitation in KRAS wild-type expressing RASless MEFs; format: cell-based; conditions: 25 μM biotinylated pept-in, 16 hours
T6 construct: host or cells: RASless mouse embryonic fibroblasts expressing a KRAS transgene
Method: as §3, §4

KRAS G13D mutant = target: T7, KRAS G13D mutant (Homo sapiens, UniProt P01116, G13D); assay: In vitro translation assay with streptavidin pull-down, KRAS G13D; format: binding; conditions: 10 μM biotinylated pept-in, Western blot
T7 construct: made in house; host or cells: cell-free: PURExpress In Vitro Protein Synthesis Kit (New England Biolabs), linear T7 DNA template
Text: as §1, §2

[1] = system: SW620 xenograft of human KRAS G12V mutant colorectal cancer; assay: In vivo SW620 xenograft model; design: species or system Female NCr nu/nu mice
Method: FIG. 12 illustrates that RAS-targeting pept-ins reduce tumor growth in a xenograft model of KRAS G12V mutant cancer. […] Pept-ins were dosed 3 times per week by intratumoral injection at either 20 or 200 μg once the tumors reached 100-150 mm^3. Model response was monitored by a positive control group receiving Irinotecan at 100 mg/kg, once per week for 3 weeks. Group sizes were N=6 for the non-treated group, N=5 for the vehicle groups and N=8 for the pept-in and positive control groups. Graphs show box plots of tumor volumes at day 22 after treatment started.
Female NCr nu/nu mice (8 to 12 weeks) were inoculated with 1×10^6 SW620 tumor cells in 50% Matrigel subcutaneously in the hind flank. The cell Injection Volume was 0.1 mL/mouse. When tumors reached an average size of 100-150 mm^3 a pair match was performed, and treatment started. Group sizes were N=6 for the non-treated group, N=5 for the vehicle groups and N=8 for the pept-in and positive control groups. Tumor growth was monitored by caliper measurement twice per week. Model response was monitored by Irinotecan dosed once per week at 100 mg/kg intraperitoneally for 3 weeks.
To assess whether the RAS-targeting pept-ins are able to attenuate growth of KRAS G12V-driven tumors in vivo, a subcutaneous xenograft model of human KRAS G12V colorectal cancer (SW620) was used. Once the tumors reached 100-150 mm^3 in size, pept-ins were administered directly into the tumor mass by intratumoral injection three times per week during two weeks at two different doses (20 μg and 200 μg).

[2] = system: RASless MEFs expressing KRAS G12V; assay: RASless MEF spheroid efficacy, KRAS G12V expressing MEFs; format: cell-based, mouse; conditions: spheroids, 5 days of exposure, compared to KRAS WT and G12C MEFs
Method: (§5) FIG. 9 illustrates mutant-selective cellular efficacy using the RASless MEF panel. Graph showing mean±SD as well as individual assay IC50s from at least three independent experiments assessing the efficacy of the indicated RAS-target pept-ins on a panel of RASless MEFs, expressing either wild-type (WT), mutant G12V or G12C KRAS, or a V600E mutant BRAF in absence of endogenous K-, H-, and NRAS.
(§6) For the single-dose viability screen on spheroid cultures, 1000 cells were seeded per well in black Ultra-Low Attachment (ULA) round-bottom 96-well plates (Corning) in […] full growth medium. […] Technical duplicates were included for all experimental pept-in conditions 5 days after treatment viability was assessed using the CellTiter Glo 3D reagent (Promega) according to the manufacturer's instructions, with the following adaptation: 80 μL of reagent was added per well. Readout was performed on a Clariostar plate reader (BMG). […]
(§7) RAS mutant-selectivity on cellular efficacy was assessed using the isogenic RASless mouse embryonic fibroblast (MEF) panel. […] The panel assessed included the common clinical KRAS variants expressed as transgene (WT, G12V and G12C) and an additional cell line dependent on the expression of BRAF V600E for proliferation.
(§8) Efficacy of RAS-targeting pept-ins on MEFs growing as spheroids was assessed after 5 days of exposure. […]

[3] = system: RASless MEFs expressing KRAS G12C; assay: RASless MEF spheroid efficacy, KRAS G12C expressing MEFs; format: cell-based, mouse; conditions: spheroids, 5 days of exposure
Method: as §5, §6, §7, §8

[4] = system: RASless MEFs expressing KRAS WT; assay: RASless MEF spheroid efficacy, KRAS WT expressing MEFs; format: cell-based, mouse; conditions: spheroids, 5 days of exposure
Method: as §5, §6, §7, §8

KRAS G12V = KRAS G12V (human, UniProt P01116-2 1-188, limits assumed); assay: cell-based or functional assay
[5] = 20 μg intratumoral injection three times per week
[6] = 200 μg intratumoral injection three times per week

04-004-N011: biotinylated version of pept-in 04-004-N001 (KLSVFAIKGSKLSVFAIK; also: biotinylated, site not given here)
streptavidin pull-down of KRAS G12C (G12C mutant KRAS): efficient pull-down | binding (pull-down) to KRAS G12D (KRAS G12D mutant): less efficient | streptavidin pull-down of KRAS G12V (G12V mutant KRAS): efficient pull-down | streptavidin pull-down of KRAS wild-type (KRAS wild-type): efficient pull-down | co-precipitation of mutant G12V KRAS (mutant G12V KRAS): precipitate both wild-type and mutant G12V KRAS well | co-precipitation of wild-type KRAS (wild-type KRAS): precipitate both wild-type and mutant G12V KRAS well | binding (pull-down) to KRAS G13D (KRAS G13D mutant): less efficient

04-006-N007: biotinylated version of a biologically active pept-in harbouring an APR window containing the G12V mutant site (KVVVGAVKGSKVVVGAVK; also: biotinylated, site not given here)
streptavidin pull-down of KRAS G12V (G12V mutant KRAS): notable pull-down

04-015-N026: biotinylated version of a biologically active pept-in harbouring an APR window containing the G12V mutant site (KVVVGAVGKGSKVVVGAVGK; also: biotinylated, site not given here)
streptavidin pull-down of KRAS G12C (G12C mutant KRAS): notable pull-down | streptavidin pull-down of KRAS G12V (G12V mutant KRAS): notable pull-down

04-033-N003: biotinylated version of a biologically active pept-in harbouring an APR window containing the G12V mutant site (KVVVGAVGVGKGSKVVVGAVGVGK; also: biotinylated, site not given here)
streptavidin pull-down of KRAS G12V (G12V mutant KRAS): notable pull-down

CC(=O)N[C@@H](CCCCN)C(=O)N[C@H](C(=O)N[C@H](C(=O)N[C@H](C(=O)NCC(=O)N[C@@H](C)C(=O)N[C@H](C(=O)NCC(=O)N[C@@H](CCCCN)C(=O)NCC(=O)N[C@@H](CO)C(=O)N[C@@H](CCCCN)C(=O)N[C@H](C(=O)N[C@H](C(=O)N[C@H](C(=O)NCC(=O)N[C@@H](C)C(=O)N[C@H](C(=O)NCC(=O)N[C@@H](CCCCN)C(N)=O)C(C)C)C(C)C)C(C)C)C(C)C)C(C)C)C(C)C)C(C)C)C(C)C [04-015-N001]
average tumor volume at day 22 after treatment started [1, 5]: significant reduction | average tumor volume at day 22 after treatment started [1, 6]: significant reduction | reduction in tumor growth (comparison between pept-ins) ([1]; intratumoral, 20 μg and 200 μg): strongest reduction in tumor growth

Ac-KLSVFAIKGSKLSVFAIK-NH2 [04-004-N001]
efficacy on MEFs expressing KRAS G12V [2]: notable increased efficacy | average tumor volume at day 22 after treatment started [1, 5]: only significant for the 200 μg dosing group | average tumor volume at day 22 after treatment started [1, 6]: only significant for the 200 μg dosing group | efficacy on MEFs expressing KRAS G12C [3]: responded similarly as the BRAF V600E expressing RASless MEFs | efficacy on MEFs expressing KRAS WT [4]: responded similarly as the BRAF V600E expressing RASless MEFs

SAH-SOS-1A (peptide)
IC50 on viability of adherent NCI-H441 cells after 4 days exposure (KRAS G12V): 15 µM
